Measured values: patent publication US6447996

Target: human galanin receptor GalR1 (human) (UniProt P47211)
Assay: competition with 5x10^-11M [125I]galanin on membranes of Cos1 cells transfected with GalR1; Cheng-Prusoff

UniProt P47211, sequence (P47211 other isoform, or with tags, fused parts or gaps): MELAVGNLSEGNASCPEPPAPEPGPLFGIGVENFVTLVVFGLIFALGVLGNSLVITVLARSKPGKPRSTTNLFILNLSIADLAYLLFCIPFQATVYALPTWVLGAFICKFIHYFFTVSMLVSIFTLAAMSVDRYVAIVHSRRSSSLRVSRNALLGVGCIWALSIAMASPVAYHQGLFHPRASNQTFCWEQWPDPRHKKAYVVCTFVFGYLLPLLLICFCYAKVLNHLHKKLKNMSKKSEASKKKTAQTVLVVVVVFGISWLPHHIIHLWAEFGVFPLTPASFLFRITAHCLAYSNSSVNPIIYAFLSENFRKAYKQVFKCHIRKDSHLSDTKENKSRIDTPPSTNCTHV

- Ki: 0.115 µM
Substance: galanin 2-29 (peptide)
